Patent US20150033370

Test system: TALEN-AAVS1 (goat AAVS1 TALEN pair; left and right monomers not described separately) (synthetic construct)
Assay: cell_activity
Settings: cleavage/targeting efficiency in transfected goat fibroblasts; 6 of 8 puromycin-resistant clones correctly targeted with donor; half-sites highlighted only in …

TCCGGCTGTCTCCCTACCAGGGACACGGCAGGGCGGTGGTCAGCTCTCCTGGA (double strand) [goat AAVS1 TALEN target]
activity: 2%
